According to paper PMC8163081 (Science Advances, 2021):
One block for each molecule: values may come before it.

Experiments:
α-actinin-2 (human) = α-actinin-2 (human) (UniProt P35609); test: ITC
hd-α-actinin-2 (human) [1] = target: hd-α-actinin-2 (human) (UniProt P35609); test: ITC
hd-α-actinin-2 (human) [2] = target: hd-α-actinin-2 (human) (UniProt P35609); test: SEC-MALS
α-actinin-2 [3] = target: T1, α-actinin-2 (human, UniProt P35609 1-894); test: SEC-MALS
[4] = target: α-actinin-2-yellow fluorescent protein (YFP) (human, UniProt P35609 1-894); test: FRET or BRET
Chain of α-actinin-2-yellow fluorescent protein (YFP) (P35609 whole entry): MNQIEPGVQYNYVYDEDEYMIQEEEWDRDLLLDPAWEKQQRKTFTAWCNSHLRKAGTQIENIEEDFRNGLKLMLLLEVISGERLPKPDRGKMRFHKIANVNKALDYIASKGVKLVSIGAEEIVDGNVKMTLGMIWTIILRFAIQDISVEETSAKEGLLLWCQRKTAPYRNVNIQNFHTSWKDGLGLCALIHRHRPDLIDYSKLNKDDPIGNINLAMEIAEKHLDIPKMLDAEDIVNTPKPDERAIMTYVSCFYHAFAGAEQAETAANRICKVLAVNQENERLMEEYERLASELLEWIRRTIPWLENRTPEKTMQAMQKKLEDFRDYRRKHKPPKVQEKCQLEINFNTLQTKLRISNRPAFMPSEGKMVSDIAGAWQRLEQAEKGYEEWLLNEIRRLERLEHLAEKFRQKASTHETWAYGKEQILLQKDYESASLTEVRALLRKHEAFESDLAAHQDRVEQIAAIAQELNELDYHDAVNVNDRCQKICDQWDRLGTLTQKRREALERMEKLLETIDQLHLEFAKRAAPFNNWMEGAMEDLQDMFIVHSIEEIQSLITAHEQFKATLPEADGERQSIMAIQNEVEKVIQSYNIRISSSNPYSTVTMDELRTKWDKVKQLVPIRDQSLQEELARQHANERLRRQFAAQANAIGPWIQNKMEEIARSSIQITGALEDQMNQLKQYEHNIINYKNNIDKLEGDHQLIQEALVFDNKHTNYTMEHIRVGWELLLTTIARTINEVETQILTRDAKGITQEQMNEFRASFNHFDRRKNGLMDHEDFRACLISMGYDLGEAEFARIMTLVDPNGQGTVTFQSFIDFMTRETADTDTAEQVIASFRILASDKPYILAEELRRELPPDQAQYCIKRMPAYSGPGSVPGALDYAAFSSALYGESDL

α-actinin-2 [5] = target: T1, α-actinin-2; test: peptide or protein array
α-actinin-2 [6] = target: T1, α-actinin-2; test: ITC
[7] = target: human (nonmuscle) α-actinin-1 (human, UniProt P12814 1-892); test: SEC-MALS
Chain of human (nonmuscle) α-actinin-1 (P12814 whole entry): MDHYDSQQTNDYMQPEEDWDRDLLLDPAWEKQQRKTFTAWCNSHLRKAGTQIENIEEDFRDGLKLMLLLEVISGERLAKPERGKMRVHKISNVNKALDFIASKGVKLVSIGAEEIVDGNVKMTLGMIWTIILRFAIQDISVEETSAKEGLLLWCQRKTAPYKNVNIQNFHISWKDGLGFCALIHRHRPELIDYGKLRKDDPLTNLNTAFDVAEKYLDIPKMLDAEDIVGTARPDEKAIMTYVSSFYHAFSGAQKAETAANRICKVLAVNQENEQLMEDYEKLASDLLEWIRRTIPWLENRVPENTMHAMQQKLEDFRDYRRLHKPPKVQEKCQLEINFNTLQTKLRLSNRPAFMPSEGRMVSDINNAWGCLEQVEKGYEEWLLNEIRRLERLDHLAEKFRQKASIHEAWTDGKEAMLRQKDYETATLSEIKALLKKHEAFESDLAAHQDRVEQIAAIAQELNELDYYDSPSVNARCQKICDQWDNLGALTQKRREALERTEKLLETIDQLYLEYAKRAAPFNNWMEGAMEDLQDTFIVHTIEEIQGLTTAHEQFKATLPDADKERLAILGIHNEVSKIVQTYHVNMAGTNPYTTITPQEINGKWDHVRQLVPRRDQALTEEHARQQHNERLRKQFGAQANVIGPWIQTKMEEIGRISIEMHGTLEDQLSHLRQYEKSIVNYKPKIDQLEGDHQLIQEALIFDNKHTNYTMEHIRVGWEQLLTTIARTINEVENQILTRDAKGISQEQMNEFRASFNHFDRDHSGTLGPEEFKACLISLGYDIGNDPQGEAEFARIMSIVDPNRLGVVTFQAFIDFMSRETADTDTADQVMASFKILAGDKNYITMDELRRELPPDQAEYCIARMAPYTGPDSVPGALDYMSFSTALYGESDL

rod-α-actinin-2 = rod-α-actinin-2 (human, UniProt P35609 274-746); test: SEC-MALS
Chain of rod-α-actinin-2 (P35609 274-746): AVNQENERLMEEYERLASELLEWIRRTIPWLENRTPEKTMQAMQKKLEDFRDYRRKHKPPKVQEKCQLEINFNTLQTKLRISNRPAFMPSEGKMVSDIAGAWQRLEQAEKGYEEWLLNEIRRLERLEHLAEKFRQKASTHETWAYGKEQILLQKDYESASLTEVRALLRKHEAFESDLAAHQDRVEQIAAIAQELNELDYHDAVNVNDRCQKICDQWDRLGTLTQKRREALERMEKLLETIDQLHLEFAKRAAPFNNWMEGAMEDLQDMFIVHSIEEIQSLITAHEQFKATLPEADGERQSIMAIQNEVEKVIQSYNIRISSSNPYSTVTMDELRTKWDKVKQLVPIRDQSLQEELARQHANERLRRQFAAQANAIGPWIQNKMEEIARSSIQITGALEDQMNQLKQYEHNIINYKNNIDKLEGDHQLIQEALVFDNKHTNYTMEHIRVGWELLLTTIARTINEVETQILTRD

Chain of α-actinin-2 (human) (P35609 whole entry): as the sequence (P35609 whole entry) above
T1 sequence (P35609 whole entry): as above
Chain of hd-α-actinin-2 (human) (P35609 19-894): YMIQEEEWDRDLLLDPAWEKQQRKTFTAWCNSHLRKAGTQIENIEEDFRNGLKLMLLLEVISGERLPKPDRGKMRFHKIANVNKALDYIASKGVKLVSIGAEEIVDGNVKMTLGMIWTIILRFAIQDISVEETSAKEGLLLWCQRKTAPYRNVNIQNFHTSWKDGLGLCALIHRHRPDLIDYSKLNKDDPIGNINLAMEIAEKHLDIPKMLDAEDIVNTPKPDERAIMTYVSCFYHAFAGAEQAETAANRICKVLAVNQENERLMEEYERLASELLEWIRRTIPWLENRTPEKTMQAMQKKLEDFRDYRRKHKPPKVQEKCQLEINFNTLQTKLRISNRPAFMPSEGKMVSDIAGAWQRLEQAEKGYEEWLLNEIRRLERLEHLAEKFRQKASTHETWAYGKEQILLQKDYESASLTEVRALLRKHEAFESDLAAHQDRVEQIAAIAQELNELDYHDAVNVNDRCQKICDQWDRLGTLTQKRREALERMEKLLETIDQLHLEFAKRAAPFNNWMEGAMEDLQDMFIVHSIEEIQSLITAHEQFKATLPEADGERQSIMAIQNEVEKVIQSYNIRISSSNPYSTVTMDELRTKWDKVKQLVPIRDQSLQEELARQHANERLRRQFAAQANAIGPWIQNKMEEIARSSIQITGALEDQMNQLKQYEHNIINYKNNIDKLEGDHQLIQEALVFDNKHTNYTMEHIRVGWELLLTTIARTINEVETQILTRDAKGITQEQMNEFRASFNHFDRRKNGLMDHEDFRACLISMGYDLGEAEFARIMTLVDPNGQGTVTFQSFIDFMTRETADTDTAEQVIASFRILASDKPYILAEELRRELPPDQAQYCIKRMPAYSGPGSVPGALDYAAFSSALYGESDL

B1: FATZ-1 (filamin-, α-actinin-, and telethonin-binding protein of the Z-disk) (natural protein, human, UniProt Q9NP98 1-299, looked up)
chain: MPLSGTPAPNKKRKSSKLIMELTGGGQESSGLNLGKKISVPRDVMLEELSLLTNRGSKMFKLRQMRVEKFIYENHPDVFSDSSMDHFQKFLPTVGGQLGTAGQGFSYSKSNGRGGSQAGGSGSAGQYGSDQQHHLGSGSGAGGTGGPAGQAGRGGAAGTAGVGETGSGDQAGGEGKHITVFKTYISPWERAMGVDPQQKMELGIDLLAYGAKAELPKYKSFNRTAMPYGGYEKASKRMTFQMPKFDLGPLLSEPLVLYNQNLSNRPSFNRTPIPWLSSGEPVDYNVDIGIPLDGETEEL
stoichiometry N (α-actinin-2 [3]): 2 FATZ molecules per α-actinin-2 dimer

B2: ECFP-tagged FATZ-1 (WT FATZ-1) (natural protein, human, UniProt Q9NP98 1-299, looked up)
chain: MPLSGTPAPNKKRKSSKLIMELTGGGQESSGLNLGKKISVPRDVMLEELSLLTNRGSKMFKLRQMRVEKFIYENHPDVFSDSSMDHFQKFLPTVGGQLGTAGQGFSYSKSNGRGGSQAGGSGSAGQYGSDQQHHLGSGSGAGGTGGPAGQAGRGGAAGTAGVGETGSGDQAGGEGKHITVFKTYISPWERAMGVDPQQKMELGIDLLAYGAKAELPKYKSFNRTAMPYGGYEKASKRMTFQMPKFDLGPLLSEPLVLYNQNLSNRPSFNRTPIPWLSSGEPVDYNVDIGIPLDGETEEL
FRET ratio [4]: 0.085

B3: FATZ-3 (natural protein, human, UniProt Q8TDC0 1-251, looked up)
chain: MIPKEQKGPVMAAMGDLTEPVPTLDLGKKLSVPQDLMMEELSLRNNRGSLLFQKRQRRVQKFTFELAASQRAMLAGSARRKVTGTAESGTVANANGPEGPNYRSELHIFPASPGASLGGPEGAHPAAAPAGCVPSPSALAPGYAEPLKGVPPEKFNHTAISKGYRCPWQEFVSYRDYQSDGRSHTPSPNDYRNFNKTPVPFGGPLVGGTFPRPGTPFIPEPLSGLELLRLRPSFNRVAQGWVRNLPESEEL
stoichiometry N (α-actinin-2 [3]): 2 FATZ molecules per α-actinin-2 dimer

B4: FATZ-2 (natural protein, human, UniProt Q9NPC6 1-264, looked up)
chain: MLSHNTMMKQRKQQATAIMKEVHGNDVDGMDLGKKVSIPRDIMLEELSHLSNRGARLFKMRQRRSDKYTFENFQYQSRAQINHSIAMQNGKVDGSNLEGGSQQAPLTPPNTPDPRSPPNPDNIAPGYSGPLKEIPPEKFNTTAVPKYYQSPWEQAISNDPELLEALYPKLFKPEGKAELPDYRSFNRVATPFGGFEKASRMVKFKVPDFELLLLTDPRFMSFVNPLSGRRSFNRTPKGWISENIPIVITTEPTDDTTVPESEDL
stoichiometry N (α-actinin-2 [3]): 2 FATZ molecules per α-actinin-2 dimer

B5: ECFP-tagged FATZ-2 (WT) (natural protein, human, UniProt Q9NPC6 1-264, looked up)
chain: MLSHNTMMKQRKQQATAIMKEVHGNDVDGMDLGKKVSIPRDIMLEELSHLSNRGARLFKMRQRRSDKYTFENFQYQSRAQINHSIAMQNGKVDGSNLEGGSQQAPLTPPNTPDPRSPPNPDNIAPGYSGPLKEIPPEKFNTTAVPKYYQSPWEQAISNDPELLEALYPKLFKPEGKAELPDYRSFNRVATPFGGFEKASRMVKFKVPDFELLLLTDPRFMSFVNPLSGRRSFNRTPKGWISENIPIVITTEPTDDTTVPESEDL
FRET ratio [4]: 0.087

B7: LM2 peptide (peptide, UniProt Q9NP98 216-240, looked up)
peptide: PKYKSFNRTAMPYGGYEKASKRMTF
Kd (α-actinin-2 [6]): 315 nM
stoichiometry N (α-actinin-2 [6]): 1.9

Further lines, results first:

Kd1 (two-site binding model, first binding event) (α-actinin-2 (human)): 7.8 nM
Kd2 (two-site binding model, second binding event) (α-actinin-2 (human)): 408 nM
Molecule: Δ91-FATZ-1-trx (domain or fragment)

Kd (hd-α-actinin-2 (human) [1]): 260 nM
stoichiometry N (Δ91-FATZ-1 per hd-α-actinin-2) (hd-α-actinin-2 (human) [1]): 1
stoichiometry N (Δ91-FATZ-1 per hd-α-actinin-2) (hd-α-actinin-2 (human) [2]): 1
Molecule: Δ91-FATZ-1 (from UniProt Q9NP98 92-299) (domain or fragment)

Kd (α-actinin-2 (human)): 1500 nM
stoichiometry N (α-actinin-2 (human)): 1.3
Molecule: trx-Δ91-FATZ-1 (domain or fragment)

binding result (α-actinin-2 [5]): binds
B6: FATZ-1 peptide comprising residues 217 to 231 (peptide array) (peptide, UniProt Q9NP98 217-231, looked up)
peptide: KYKSFNRTAMPYGGY

dH (first binding event) (α-actinin-2 [6]): -26.5 kcal/mol
stoichiometry N (α-actinin-2 [3]): 2 Δ91-FATZ-1 per α-actinin-2 dimer
stoichiometry N [7]: 2 Δ91-FATZ-1 per α-actinin-1 (2:1 complex)
stoichiometry N (rod-α-actinin-2): 2 Δ91-FATZ-1 per rod-α-actinin-2 dimer
B8: Δ91-FATZ-1 (domain or fragment, human, UniProt Q9NP98 92-299, looked up)
chain: PTVGGQLGTAGQGFSYSKSNGRGGSQAGGSGSAGQYGSDQQHHLGSGSGAGGTGGPAGQAGRGGAAGTAGVGETGSGDQAGGEGKHITVFKTYISPWERAMGVDPQQKMELGIDLLAYGAKAELPKYKSFNRTAMPYGGYEKASKRMTFQMPKFDLGPLLSEPLVLYNQNLSNRPSFNRTPIPWLSSGEPVDYNVDIGIPLDGETEEL
